Results: the supplement of paper PMC9732359
± gives the uncertainty stated by the source.

Test: protein stability index of a GFP-peptide fusion (yeast GPS) (PSI 1-4); higher = more stable; sorted into four equal gates, so the index is relative within each strain
In short: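 Mid-log yeast cultures in leucine-free medium, carrying a pooled plasmid library, were sorted into four equal gates by their GFP/Cherry fluorescence ratio. Each plasmid expressed Cherry along with GFP fused upstream of a tiled 17-residue yeast protein peptide. Plasmids recovered from each gate were PCR-amplified and Illumina-sequenced, with reads assigned to strains by barcodes. The protein stability index was obtained by summing each gate's read frequency weighted by its gate number.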

Row | Sequence | protein stability index (doa10∆) | protein stability index (pdr5∆) | protein stability index (san1∆) | protein stability index (ubr1∆)
1 | NAVTAAAANNNIKPVEQ [GAL11] | 2.66 ± 0.064 | 2.66 ± 0.051 | 2.77 ± 0.062 | 2.84 ± 0.039
2 | LTLLERKWVIFITKHLP [NUT1] | 2.59 ± 0.089 | 1.68 ± 0.064 | 1.45 ± 0.13 | 2.57 ± 0.079
3 | SYFSPINSSNEALVQAF [YCG1] | 2.33 ± 0.063 | 2.19 ± 0.061 | 2.69 ± 0.072 | 2.25 ± 0.042
4 | KDEEETEYFENKQSVSN [DSN1] | 3.46 ± 0.12 | 3.4 ± 0.091 | 3.31 ± 0.085 | 3.53 ± 0.054
5 | RNADELSSYQKKIIKCD [PRE5] | 2.25 ± 0.058 | 2.08 ± 0.084 | 2.58 ± 0.086 | 1.65 ± 0.049
6 | RLLNTNVDGNIKIVYAL [RPS18A] |  |  |  | 3.27 ± 0.16
7 | GVTSLIKNLGLPSDRCS [RPP1] | 2.29 ± 0.068 | 2.26 ± 0.072 | 1.5 ± 0.12 | 1.69 ± 0.062
8 | GHVKPVRCVNCSKSIPK [RPS26A] | 2.8 ± 0.1 | 2.7 ± 0.11 | 2.16 ± 0.19 | 3.06 ± 0.14
9 | THNFKLSGVSNSMDMVD [RGR1] | 3.09 ± 0.068 | 3 ± 0.074 | 2.93 ± 0.06 | 3.08 ± 0.062
10 | KCQTCQEGMNECPGHFG [RPO21] | 3.34 ± 0.17 | 3.23 ± 0.094 | 3.51 ± 0.086 | 3.26 ± 0.091
11 | VKTSPDAKKCIAACTGV [FAS1] | 2.41 ± 0.12 | 3.02 ± 0.16 | 3.01 ± 0.24 | 2.48 ± 0.08
12 | LTKKYSFKIFVDVLVIS [RRP42] | 1.22 ± 0.049 | 1.25 ± 0.051 | 1.41 ± 0.071 | 1.44 ± 0.039
13 | KGGSLYGLGLIYAGFGR [RPN2] | 2.15 ± 0.095 | 2.28 ± 0.086 | 2.35 ± 0.063 | 2 ± 0.062
14 | NEGLVEYIDAEEEESIL [RPB2] | 3.36 ± 0.081 | 3.46 ± 0.085 | 3.24 ± 0.078 | 3.37 ± 0.087
15 | GTFKSTLDREYITLKAT [QCR2] | 1.39 ± 0.065 | 1.44 ± 0.044 | 1.51 ± 0.099 | 1.49 ± 0.047
16 | EDDTQIVTGNLVLDLLT [IRR1] | 2.12 ± 0.055 | 2.83 ± 0.047 | 2.26 ± 0.085 | 2.26 ± 0.037
17 | EGIKETQAKRIFLQQFL [SWI1] | 2.37 ± 0.12 | 2.75 ± 0.14 | 2.74 ± 0.086 | 2.26 ± 0.066
18 | EDDSSNSCFSDGSQQNL [REC8] | 3.7 ± 0.22 |  | 3.65 ± 0.12 | 3.32 ± 0.1
19 | DTFLPPPPPPPSNFEIN [PRP8] | 2.6 ± 0.039 | 2.57 ± 0.039 | 2.34 ± 0.04 | 2.33 ± 0.032
20 | QNTSNMNAGGLFGAKPQ [YGR119C/NUP57] | 2.08 ± 0.055 | 3.05 ± 0.063 | 3.34 ± 0.052 | 2.17 ± 0.076
21 | LMLGSVNLPGGILRRKS [RRP4] | 1.96 ± 0.058 | 1.46 ± 0.11 | 1.54 ± 0.14 | 1.4 ± 0.047
22 | EEDDEGELEQAQAWINL [RPN7] | 3.58 ± 0.28 | 3.23 ± 0.11 | 3.43 ± 0.11 | 3.26 ± 0.058
23 | DSFTMPNISHSNIDYQT [SNF2] | 2.4 ± 0.088 | 2.12 ± 0.1 | 2.49 ± 0.13 | 2.41 ± 0.072
24 | YQKKQYKDSLALINDLL [RPN6] | 2.4 ± 0.26 | 2.68 ± 0.19 | 1.82 ± 0.21 | 2.86 ± 0.13
25 | TMFTAEQSELLKAQITS [SNF2] | 2.19 ± 0.046 | 2.5 ± 0.056 | 2.57 ± 0.058 | 2.49 ± 0.036
26 | GDIVLTRVTRLSLQRAN [CSL4] | 2.14 ± 0.098 | 1.41 ± 0.093 | 1.59 ± 0.16 | 1.32 ± 0.12
27 | VRILRLITTNSVEEVIL [SNF2] | 2.3 ± 0.093 | 2.12 ± 0.06 | 2.31 ± 0.081 | 1.68 ± 0.033
28 | EDEFIVQHDQILVMETS [SWP82] | 2.95 ± 0.069 | 2.54 ± 0.063 | 2.33 ± 0.082 | 2.98 ± 0.048

Row | Sequence | protein stability index (doa10∆) | protein stability index (pdr5∆) | protein stability index (san1∆) | protein stability index (ubr1∆)
29 | EVTKEEDIIANYASVYP [RRP43] | 2.77 ± 0.07 | 2.95 ± 0.057 | 3.06 ± 0.094 | 3.06 ± 0.055
30 | NIATQQNMQQSLQQMQH [GAL11] | 2.75 ± 0.076 | 2.92 ± 0.091 | 2.68 ± 0.17 | 2.86 ± 0.069
31 | INDIRDDDIEKQEQEEK [YCG1] | 2.96 ± 0.082 | 2.79 ± 0.07 | 2.94 ± 0.055 | 3.12 ± 0.055
32 | IQRTLMELLTQMDGFDN [RPT4] | 2.84 ± 0.12 | 3.22 ± 0.079 | 3.28 ± 0.15 | 3.23 ± 0.1
33 | VVMAMYNPKMIDDRDYV [RET1] | 3.36 ± 0.27 |  |  | 3.45 ± 0.27
34 | PEMIKRSLLLSRVRADD [RRP43] | 2.87 ± 0.2 | 3.63 ± 0.17 |  | 2.92 ± 0.16
35 | DQFIRHVLRGVESPDKN [YCG1] |  | 3.77 ± 0.2 | 3.18 ± 0.14 | 
36 | RASDLRMTIRTRGRSAT [RRP43] | 2.93 ± 0.1 | 2.36 ± 0.093 | 2.22 ± 0.17 | 2.33 ± 0.11
37 | STELNNKQYELFMKSLI [SWI1] | 3.03 ± 0.075 | 2.94 ± 0.058 | 3.16 ± 0.039 | 2.74 ± 0.048
38 | TLVKGPKEPRLKSQMDT [SKI6] | 3.09 ± 0.25 | 3.05 ± 0.13 |  | 3.33 ± 0.091
39 | EEKPGLIITRKAFKNNS [SMC4] | 2.89 ± 0.086 | 2.88 ± 0.097 | 2.82 ± 0.064 | 2.94 ± 0.079
40 | YIDIRTNNVLRKLGLLG [MTW1] | 1.49 ± 0.053 | 1.76 ± 0.069 | 1.64 ± 0.15 | 1.5 ± 0.056
41 | WVNMLLISSSGPIKTPV [FAS2] | 1.87 ± 0.059 | 1.32 ± 0.051 | 1.23 ± 0.082 | 1.53 ± 0.047
42 | PVSPLDIYSDEASAQKK [RPS2] | 2.74 ± 0.095 | 2.93 ± 0.093 | 3.02 ± 0.075 | 3.02 ± 0.06
43 | PIMQTQMPLNSNGGNNM [SNF2] | 3 ± 0.059 | 2.92 ± 0.06 | 2.84 ± 0.057 | 2.62 ± 0.045
44 | TISKTVSSTIPRETIPF [FAS2] | 2.96 ± 0.072 | 2.96 ± 0.084 | 2.75 ± 0.11 | 2.71 ± 0.052
45 | SVTETESISQTPISNEQ [SRP68] | 2.89 ± 0.099 | 3.01 ± 0.078 | 2.82 ± 0.063 | 2.96 ± 0.082
46 | DDSRNPDCKIKIAHGTT [PRE2] | 2.63 ± 0.086 | 2.77 ± 0.067 | 2.72 ± 0.076 | 2.84 ± 0.078
47 | IVTGNLVLDLLTWLSSF [IRR1] | 2.63 ± 0.061 | 2.66 ± 0.041 | 2.05 ± 0.07 | 2.29 ± 0.039
48 | HDGGFDLVHIKDSLDNT [RPS4A] | 2.05 ± 0.079 | 2.26 ± 0.06 | 2.73 ± 0.12 | 2.33 ± 0.04
49 | IIELPNEKFEIELLSLD [SRB4] | 2.68 ± 0.056 | 2.99 ± 0.066 | 2.84 ± 0.052 | 2.68 ± 0.048
50 | VTDKYTAKKTNRSAYDS [YDL088C/ASM4] | 2.81 ± 0.089 | 3.26 ± 0.081 | 2.96 ± 0.14 | 2.79 ± 0.043
51 | VFQLPTRLPAFERPAVK [RPC53] | 3.01 ± 0.093 | 2.89 ± 0.072 | 2.81 ± 0.1 | 3.01 ± 0.079
52 | VLTQLTALALKYLIKYN [CSI1] | 2.37 ± 0.11 | 2.75 ± 0.08 | 2.55 ± 0.11 | 2.47 ± 0.074
53 | IKETKENDEEFYKNKYS [RPN2] | 1.34 ± 0.13 | 1.5 ± 0.19 | 1.31 ± 0.26 | 1.51 ± 0.21
54 | RLECVKCKTRAQLTLKR [RPL42A] | 2.8 ± 0.096 | 2.46 ± 0.085 | 2.52 ± 0.14 | 2.54 ± 0.056
55 | QLKMVNERELNVFARLS [RPC82] |  | 2 ± 0.2 |  | 2.95 ± 0.12
